In publication doi:10.1101/681668 (bioRxiv, 2019):
Numbering of substitutions follows the chain as printed.

Experiments:
Experiment in all cases: pull-down
[1] = target: T1, MBP-ORC1 R105Q (human, UniProt Q13415 1-861, R105Q)
T1 sequence: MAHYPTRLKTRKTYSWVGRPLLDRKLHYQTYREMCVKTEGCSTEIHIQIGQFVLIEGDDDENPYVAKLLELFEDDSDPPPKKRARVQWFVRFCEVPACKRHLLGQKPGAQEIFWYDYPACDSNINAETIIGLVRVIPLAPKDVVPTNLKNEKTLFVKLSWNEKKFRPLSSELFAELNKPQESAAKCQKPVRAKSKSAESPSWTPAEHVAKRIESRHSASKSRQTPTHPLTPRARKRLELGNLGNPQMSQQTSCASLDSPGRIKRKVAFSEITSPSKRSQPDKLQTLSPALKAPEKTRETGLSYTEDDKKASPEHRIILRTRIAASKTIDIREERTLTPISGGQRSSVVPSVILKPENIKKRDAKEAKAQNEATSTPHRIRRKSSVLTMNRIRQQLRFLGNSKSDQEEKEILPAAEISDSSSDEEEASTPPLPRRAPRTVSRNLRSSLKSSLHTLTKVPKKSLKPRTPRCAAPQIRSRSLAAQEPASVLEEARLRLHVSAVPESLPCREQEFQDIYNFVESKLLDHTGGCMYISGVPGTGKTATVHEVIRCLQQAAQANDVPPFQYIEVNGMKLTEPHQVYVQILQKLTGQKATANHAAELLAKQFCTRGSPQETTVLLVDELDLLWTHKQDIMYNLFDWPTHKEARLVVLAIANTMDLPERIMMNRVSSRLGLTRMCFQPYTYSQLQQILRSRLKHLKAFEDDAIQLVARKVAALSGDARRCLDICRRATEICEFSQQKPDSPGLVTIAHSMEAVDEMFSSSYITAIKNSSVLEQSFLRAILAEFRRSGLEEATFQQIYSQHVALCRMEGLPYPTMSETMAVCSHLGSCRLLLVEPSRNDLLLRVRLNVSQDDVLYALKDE

[2] = target: T2, MBP-ORC1 CDK123 (human, UniProt Q13415 1-861, S258A | S273A | T375A)
T2 sequence: T1 sequence with Q105R, S258A, S273A, T375A

[3] = target: T3, MBP-ORC1 CDK3 (human, UniProt Q13415 1-861, T375A)
T3 sequence: T1 sequence with Q105R, T375A

Measured: binding result

B1: GST-CDC6 (natural protein)
chain: MPQTRSQAQATISFPKRKLSRALNKAKNSSDAKLEPTNVQTVTCSPRVKALPLSPRKRLGDDNLCNTPHLPPCSPPKQGKKENGPPHSHTLKGRRLVFDNQLTIKSPSKRELAKVHQNKILSSVRKSQEITTNSEQRCPLKKESACVRLFKQEGTCYQQAKLVLNTAVPDRLPAREREMDVIRNFLREHICGKKAGSLYLSGAPGTGKTACLSRILQDLKKELKGFKTIMLNCMSLRTAQAVFPAIAQEICQEEVSRPAGKDMMRKLEKHMTAEKGPMIVLVLDEMDQLDSKGQDVLYTLFEWPWLSNSHLVLIGIANTLDLTDRILPRLQAREKCKPQLLNFPPYTRNQIVTILQDRLNQVSRDQVLDNAAVQFCARKVSAVSGDVRKALDVCRRAIEIVESDVKSQTILKPLSECKSPSEPLIPKRVGLIHISQVISEVDGNRMTLSQEGAQDSFPLQQKILVCSLMLLIRQLKIKEVTLGKLYEAYSKVCRKQQVAAVDQSECLSLSGLLEARGILGLKRNKETRLTKVFFKIEEKEIEHALKDKALIGNILATGLP
binds: all assays above
